In publication doi:10.1101/2025.02.10.637573 (bioRxiv, 2025):
Blank lines part the entries; values can stand above or below the binder they belong to.

Experiments:
[1] = molecular target: Vps74 (endogenous, wild-type yeast cells) (Saccharomyces cerevisiae (strain ATCC …, UniProt Q06385)); test: co-IP
[2] = molecular target: Vps74 (bacterially expressed, as used in the in vitro mixing assays) (yeast, UniProt Q06385); test: pull-down
Twin-Strep-Vps74 = Twin-Strep-Vps74 (yeast, UniProt Q06385); test: pull-down
Twin-Strep-Vps74, sequence (Q06385 whole entry): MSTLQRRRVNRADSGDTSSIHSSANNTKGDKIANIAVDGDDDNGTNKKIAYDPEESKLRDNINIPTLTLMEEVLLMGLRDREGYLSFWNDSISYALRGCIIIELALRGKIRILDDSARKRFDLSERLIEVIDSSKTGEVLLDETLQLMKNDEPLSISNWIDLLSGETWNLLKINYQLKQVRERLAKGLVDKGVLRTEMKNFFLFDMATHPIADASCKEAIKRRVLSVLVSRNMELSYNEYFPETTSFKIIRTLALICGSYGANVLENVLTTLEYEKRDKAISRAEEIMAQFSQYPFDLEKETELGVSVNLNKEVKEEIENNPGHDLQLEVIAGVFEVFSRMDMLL

Vps74 (endogenous, wild-type yeast cells) (Saccharomyces cerevisiae, sequence (Q06385 whole entry): as above
Vps74 (bacterially expressed, as used in the in vitro mixing assays), sequence (Q06385 whole entry): as above

binding result [1]: binds
B1: Vps74InNb#4-HA (expressed in the cytoplasm of yeast cells) (VHH)
VHH: QVQLQESGGGLVQAGGSLRLSCAASGSISTIVGMGWYRQAPGKERELVAAITGGSSTNYADSVKGRFTISRDNAKNTVYLQMNSLKPEDTAVYYCAAVSYEYRSSPYPETYWGQGTQVTVSS

binding result [2]: binds | binding result (Twin-Strep-Vps74): binds
B2: Vps74InNb#4 (purified from the periplasm of E. coli) (VHH)
VHH: B1 VHH
